The supplement of paper PMC12338614
± gives the uncertainty stated by the source.

B1: library; numbered along this chain (parent)
chain: MEVVDPQQLGMFTEGELMSVGMDTFIHRIDSTEVIYQPRRKRAKLIGKYLMGDLLGEGSYGKVKEVLDSETLCRRAVKILKKKKLRRIPNGEANVKKEIQLLRRLRHKNVIQLVDVLYNEEKQKMYMVMEYCVCGMQEMLDSVPEKRFPVCQAHGYFCQLIDGLEYLHSQGIVHKDIKPGNLLLTTGGTLKISDLGVAEALHPFAADDTCRTSQGSPAFQPPEIANGLDTFSGFKVDIWSAGVTLYNITTGLYPFEGDNIYKLFENIGKGSYAIPGDCGPPLSDLLKGMLEYEPAKRFSIRQIRQHSWFRKKHPPAEAPVPIPPSPDTKDRWRSMTVVPYLEDLHGADEDEDLFDIEDDIIYTQDFTVPGQVPEEEASHNGQRRGLPKAVCMNGTEAAQLSTKSRAEGRAPNPARKACSASSKIRRLSACKQQ

Variants of: B1
Assay: STK11 functional score (HeLa growth suppression), rescaled enrichment; synonymous median = 1, nonsense median = 0 (normalised score)
Settings: with HeLa; variant type: missense
Procedure, shortened: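 HeLa cells carrying an AAVS1 landing pad received codon-optimised STK11 libraries made by codon randomisation (POPCode), integrated by Bxb1, with three regions each transfected three times. Integrants that were BFP-negative and mCherry-positive were sorted by FACS 4–5 days after electroporation and then grown for about two weeks. Tiled amplicons from gDNA were sequenced on NextSeq at ~2 million reads per tile. The functional score is a wild-type-corrected log ratio of post- to pre-selection counts, rescaled to the synonymous and nonsense medians, merged across codons and replicate transfections, and given a bootstrapped error.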

Point of comparison: MEVVDPQQLGMFTEGELMSVGMDTFIHRIDSTEVIYQPRRKRAKLIGKYLMGDLLGEGSYGKVKEVLDSETLCRRAVKILKKKKLRRIPNGEANVKKEIQLLRRLRHKNVIQLVDVLYNEEKQKMYMVMEYCVCGMQEMLDSVPEKRFPVCQAHGYFCQLIDGLEYLHSQGIVHKDIKPGNLLLTTGGTLKISDLGVAEALHPFAADDTCRTSQGSPWFQPPEIANGLDTFSGFKVDIWSAGVTLYNITTGLYPFEGDNIYKLFENIGKGSYAIPGDCGPPLSDLLKGMLEYEPAKRFSIRQIRQHSWFRKKHPPAEAPVPIPPSPDTKDRWRSMTVVPYLEDLHGADEDEDLFDIEDDIIYTQDFTVPGQVPEEEASHNGQRRGLPKAVCMNGTEAAQLSTKSRAEGRAPNPARKACSASSKIRRLSACKQQ [A218W], STK11 functional score 0.671 ± 0.25. Against it:
- MEVVDPQQLGMFTEGELMSVGMDTFIHRIDSTEVIYQPRRKRAKLIGKYLMGDLLGEGSYGKVKEVLDSETLCRRAVKILKKKKLRRIPNGEANVKKEIQLLRRLRHKNVIQLVDVLYNEEKQKMYMVMEYCVCGMQEMLDSVPEKRFPVCQAHGYFCQLIDGLEYLHSQGIVHKDIKPGNLLLTTGGTLKISDLGVAEALHPFAADDTCRTSQGSPAFQPPEIANGLDTFSGFKVDIWSAGVTLYNITTGLYPFEGDNIYKLFENIGKGSYAIPGDCGPPLSDLLKGMLEYEPAKRFSIRQIRQHSWFRKKHPPAEAPVPIPPSPDTKDRWRSMTVVPYLEDLHGADEDEDLFDIEDDIIYTQDFTVPGQVPEEEASHNGQRRGLPKAVCMNGTEAAQLSTKSRAEGRAGNPARKACSASSKIRRLSACKQQ [P411G] — within error, 1.14 ± 0.49
- MEVVDPQQLGMFTEGELMSVGMDTFIHRIDSTEVIYQPRRKRAKLIGKYLMGDLLGEGSYGKVKEVLDSETLCRRAVKILKKKKLRRIPNGEANVKKEIQLLRRLRHKNVIQLVDVLYNEEKQKMYAVMEYCVCGMQEMLDSVPEKRFPVCQAHGYFCQLIDGLEYLHSQGIVHKDIKPGNLLLTTGGTLKISDLGVAEALHPFAADDTCRTSQGSPAFQPPEIANGLDTFSGFKVDIWSAGVTLYNITTGLYPFEGDNIYKLFENIGKGSYAIPGDCGPPLSDLLKGMLEYEPAKRFSIRQIRQHSWFRKKHPPAEAPVPIPPSPDTKDRWRSMTVVPYLEDLHGADEDEDLFDIEDDIIYTQDFTVPGQVPEEEASHNGQRRGLPKAVCMNGTEAAQLSTKSRAEGRAPNPARKACSASSKIRRLSACKQQ [M127A] — higher, 1.5 ± 0.31
- MEVVDPQQLGMFTEGELMSVGMDTFIHRIDSTEVIYQPRRKRAKLIGKYLMGDLLGEGSYGKVKEVLDSETLCRRAVKILKKKKLRRIPNGEANVKKEIQLLRRLRHKNVIQLVDVLYNEEKQKMYMVMEYCVCGMQEMLDSVPEKRFPVCQAHGYFCQLIDGLEYLHSQGIVHKDIKPGNLLLTTGGTLKISDLGVAEALHPFAADDTCRTSQGSPAFQPPEIINGLDTFSGFKVDIWSAGVTLYNITTGLYPFEGDNIYKLFENIGKGSYAIPGDCGPPLSDLLKGMLEYEPAKRFSIRQIRQHSWFRKKHPPAEAPVPIPPSPDTKDRWRSMTVVPYLEDLHGADEDEDLFDIEDDIIYTQDFTVPGQVPEEEASHNGQRRGLPKAVCMNGTEAAQLSTKSRAEGRAPNPARKACSASSKIRRLSACKQQ [A225I] — higher, 1.42 ± 0.13
- MEVVDPQQLGMFTEGELMSVGMDTFIHRIDSTEVIYQPRRKRAKLIGKYLMGDLLGEGSYGKVKEVLDSETLCRRAVKILKKKKLRRIPNGEANVKKEIQLLRRLRHKNVIQLVDVLYNEEKQKMYMVMEYCVCGMQEMLDSVPEKRFPVCQAHGYFCQLIDGLEYLHSQGIVHKDIKPGNLLLTTGGTLKISDLGVAEALHPFAADDTCRTSQGSPAFQPPEIANGLDTFSGFKVDIWSAGVTLYNITTGLYPFEGDNIYKLFENIGKGSYAIPGDCGPPLSDLLKGMLEYEPAKRFSIRQIRQRSWFRKKHPPAEAPVPIPPSPDTKDRWRSMTVVPYLEDLHGADEDEDLFDIEDDIIYTQDFTVPGQVPEEEASHNGQRRGLPKAVCMNGTEAAQLSTKSRAEGRAPNPARKACSASSKIRRLSACKQQ [H306R] — within error, 0.628 ± 0.086
- MEVVDPQQLGMFTEGELMSVGMDTFIHRIDSTEVIYQPRRKRAKLIGKYLMGDLLGEGSYGKVKEVLDSETLCRRAVKILKKKKLRRIPNGEANVKKEIQLLRRLRHKNVIQLVDVLYNEEKQKMYMVMEYCVCGMQEMLDSVPEKRFPVCQAHGYFCQLIDGLEYLHSQGIVHKDIKPGNLLLTTGGTLKISDLGVAEALHPFAADDTCRTSQGSPAFQPPEIANGLDTFSGFKVDIWSAGVTLYNITTGLYPFEGDNIYKLFENIGKGSYAIPGDCGPPLSDLLKGMLEYEPAKRFSIRQIRQHSWFRKKHPPAEAPVPIPPSPDTKDRWRSMTVVPYLEDLHGADEDENLFDIEDDIIYTQDFTVPGQVPEEEASHNGQRRGLPKAVCMNGTEAAQLSTKSRAEGRAPNPARKACSASSKIRRLSACKQQ [D352N] — within error, 1.09 ± 0.8
- MEVVDPQQLGMFTEGEDMSVGMDTFIHRIDSTEVIYQPRRKRAKLIGKYLMGDLLGEGSYGKVKEVLDSETLCRRAVKILKKKKLRRIPNGEANVKKEIQLLRRLRHKNVIQLVDVLYNEEKQKMYMVMEYCVCGMQEMLDSVPEKRFPVCQAHGYFCQLIDGLEYLHSQGIVHKDIKPGNLLLTTGGTLKISDLGVAEALHPFAADDTCRTSQGSPAFQPPEIANGLDTFSGFKVDIWSAGVTLYNITTGLYPFEGDNIYKLFENIGKGSYAIPGDCGPPLSDLLKGMLEYEPAKRFSIRQIRQHSWFRKKHPPAEAPVPIPPSPDTKDRWRSMTVVPYLEDLHGADEDEDLFDIEDDIIYTQDFTVPGQVPEEEASHNGQRRGLPKAVCMNGTEAAQLSTKSRAEGRAPNPARKACSASSKIRRLSACKQQ [L17D] — higher, 1.7 ± 0.12
- MEVVDPQQLGMFTEGELMSVGMDTFIHRIDSTEVIYQPRRKRAKLIGKYLMGDLLGEGSYGKVKEVLDSETLCRRAVKILKKKKLRRIPNGEANVKKEIQLLRRLRHKNVIQLVDVLYNEEKQKMYMVMEYCVCGMQEMLDSVPEKRFPVCQAHGYFCQLIDGLEYLHSQGIVHKDIKPGNLLLTTGGTLKISDLGVAEALHPFAADDTCRTSQGSPAFQPPEIANGLDTFSGFKVDIWSAGVTLYNITTGLYPFEGDNIYTLFENIGKGSYAIPGDCGPPLSDLLKGMLEYEPAKRFSIRQIRQHSWFRKKHPPAEAPVPIPPSPDTKDRWRSMTVVPYLEDLHGADEDEDLFDIEDDIIYTQDFTVPGQVPEEEASHNGQRRGLPKAVCMNGTEAAQLSTKSRAEGRAPNPARKACSASSKIRRLSACKQQ [K262T] — within error, 1.08 ± 0.31
- MEVVDPQQLGMFTEGELMSVGMDTFIHRIDSTEVIYQPRRKRAKLIGKYLMGDLLGEGSYGKVKEVLDSETLCRRAVKILKKKKLRRIPNGEANVKKEIQLLRRLRHKNVIQLVDVLYNEEKQKMYMVMEYCVCGMQEMLDSVPEKRFPVCQAHGYFCQLIDGLEYLHSQGIVHKDIKPGNLLLTTGGTLKISDLGVAEALHPFAADDTCRTSQGSPAFQPPEIANGLDTFSGFKVDIWSAGVTLYNITTGLYPFEGDNIYKLFENIGKGSYAIPGDCGPPLSDLLKGMLEYEPAKRFSIRQIRQHSWFRKKHPPAEAPVPIPPSPDTKDRWRSMTVVPYLEDLHGADEDEDLFDIEDDIIYTQDFTVPGQVPEEEASHNGQRRELPKAVCMNGTEAAQLSTKSRAEGRAPNPARKACSASSKIRRLSACKQQ [G385E] — within error, 1.41 ± 0.67
- MEVVDPQQLGMFTEGELMSVGMDTFIHRIDSTEVIYQPRRKRAKLIGKYLMGDLLGEGSYGKVKEVLDSETLCRRAVKILKKKKLRRIPNGEANVKKEIQLLRRLRHKNVIQLVDVLYNEEKQKMYMVMEYCVCGMQEMLDSVPEKRFPVCQAHGYFCQLIDGLEYLHSQGIVHKDIKPGNLLLTTGGTLKISDLGVAEALHPFAADDTCRTSQGSPAFQPPEIANGLDTFSGFKVDIWSAGVTLYNITTGLYPFEGDNIYKLFENIGKGSYAIPGDCGPPLSDLLKGMLEYEPAKRFSIRQIRQHSWFRKKHPPAEAPVPIPPSPDTKDRWRSMTVRPYLEDLHGADEDEDLFDIEDDIIYTQDFTVPGQVPEEEASHNGQRRGLPKAVCMNGTEAAQLSTKSRAEGRAPNPARKACSASSKIRRLSACKQQ [V338R] — within error, 0.93 ± 0.4
- MEVVDPQQLGMFTEGELMSVGMDTFIHRIDSTEVIYQPRRKRAKLIGKYLMGDLLGEGSYGKVKEVLDSETLCRRAVKILKKKKLRRIPNGEANVKKEIQLLRRLRHKNVIQLVDVLYNEEKQKMYMVMEYCVCGMQEMLDSVPEKRFPVCQAHGYFCQLIDGLEYLHSQGIVHKDIKPGNLLLTTGGTLKISDLGVAEALHPFAADDTCRTSQGSPAFQPPEIANGLDTFSGFKVDIWSAGVTLYNITTGLYPFEGDNIYKLFENIGKGSYAIPGDCGPPLSDLLKGMLEYEPAKRFSIRQIRQHSWFRKKHPPAEAPVPIPPSPDTKDRWRSMTVVPYLEDLHGADEDEDLFDIEDDIIYTQDFTVPGQVPKEEASHNGQRRGLPKAVCMNGTEAAQLSTKSRAEGRAPNPARKACSASSKIRRLSACKQQ [E374K] — higher, 1.47 ± 0.53
- MEVVDPQQLGMFTEGELMSVGMDTFIHRIDSTEVIYQPRRKRAKLIGKYLMGDLLGEGSYGKVKEVLDSETLCRRAVKILKKKKLRRIPNGEANVKKEIQLLRRLRHKNVIQLVDVKYNEEKQKMYMVMEYCVCGMQEMLDSVPEKRFPVCQAHGYFCQLIDGLEYLHSQGIVHKDIKPGNLLLTTGGTLKISDLGVAEALHPFAADDTCRTSQGSPAFQPPEIANGLDTFSGFKVDIWSAGVTLYNITTGLYPFEGDNIYKLFENIGKGSYAIPGDCGPPLSDLLKGMLEYEPAKRFSIRQIRQHSWFRKKHPPAEAPVPIPPSPDTKDRWRSMTVVPYLEDLHGADEDEDLFDIEDDIIYTQDFTVPGQVPEEEASHNGQRRGLPKAVCMNGTEAAQLSTKSRAEGRAPNPARKACSASSKIRRLSACKQQ [L117K] — within error, 1.3 ± 0.4
- MEVVDPQQLGMFTEGELMSVGMDTFIHRIDSTEVIYQPRRKRAKLIGKYLMGDLLGEGSYGKVKEVLDSETLCRRAVKILKKKKLRRIPNGEANVKKEIQLLRRLRHKNVIQLVDVLYNEEKQKMYMVMEYCVCGMQEMLDSVPEKRFPVCQAHGYFCQLIDGLEYLHSQGIVHKDIKPGNLLLTTGGTLKISDLGVAEALHPFAADDTCRTSQGSPAFQPPEIANGLDTFSGFKVDIWSAGVTLYNITTGLYPFEGDNIYKLFENIGKGSYAIPGDCGPPLSDLLKGMLEYEPAKRFSIRQIRQHSWFRKKHPPAEAPVPIPPSPDTKDRWRSMTVVPYLEDLHGADEDEDPFDIEDDIIYTQDFTVPGQVPEEEASHNGQRRGLPKAVCMNGTEAAQLSTKSRAEGRAPNPARKACSASSKIRRLSACKQQ [L353P] — within error, 1.12 ± 0.72
- MEVVDPQQLGMFTEGELMSVGMDTFIHRIDSTEVIYQPRRKRAKLIGKYLMGDLLGEGSYGKVKEVLDSETLCRRAVKILKKKKLRRIPNGEANVKKEIQLLRRLRHKNVIQLVDVLYNEEKQKMYMVMEYCVCGMQEMLDSVPEKRFPVCQAHGYFCQLIDGLEYLHSQGIVHKDIKPGNLLLTTGGTLKISDLGVAEALHPFAADDTCRTSQGSPAFQPPEIANGLDTFSGFKVDIWSAGVTLYNITTGLYPFEGDNIYKLFENIGKGSYAIPGDCGPPLSDLLKGMLEYEPAKRFSIRQIRQHSWFRKKHPPAEAPVPIPPSPDTKDRWRSMTVVPYLEDLHGADEDEDLFDIEDDIIYTQDFTVPGQVPEEEASHNGQRRGLPKAVCMNGTEAAQLSTKSRAEGYAPNPARKACSASSKIRRLSACKQQ [R409Y] — higher, 1.53 ± 0.19
